Measurements reported in article PMC7538587.
“And” between values parts separate entries of the source, which are not always exact repeats. Equal entries are not always repeated.

How the values were obtained:
[1] = target: SALT protein (Oryza sativa L. (Pusa basmati-1)) (UniProt A2WPN7); test: SAXS; SALT freshly eluted from gel filtration, 5, 11 and 22 mg/ml, 20 °C; molecular weight from SAXS about 32.2-33.4 kDa
[2] = target: SALT protein (Oryza sativa L. (Pusa basmati-1)) (UniProt A2WPN7); test: SDS-PAGE without heat denaturation; purified SALT, 1 mg/ml, 12% gel, with SDS and BME, not heated; confirmed by immunoblotting
[3] = target: SALT protein (Oryza sativa L. (Pusa basmati-1)) (UniProt A2WPN7); test: SEC; Superdex 200 10/300 GL, 200 µl of 5 mg/ml SALT, 20 mM each of mannose and galactose in sample and buffer; calibrated with marker proteins

Substance: SALT protein (from UniProt A2WPN7 1-145) (natural protein)
- stoichiometry N [1]: 2
- stoichiometry N [2]: 2 and 4
- stoichiometry N [3]: 2
